Positions of bridges follow the written chain, without caps; N, C: chain ends. Non-standard residues stand in square brackets, D forms with d. Primed or numbered codes have the meaning given here. mXylyl(3) = bridging moiety between the two residues given in brackets; mXylyl = bridging moiety between residues (mXylyl(i,j)); Ala(1H-tetrazol-5-yl) = N[C@@H](Cc1nnn[nH]1)C(=O)O; Trp(7-aza) = N[C@@H](Cc1c[nH]c2ncccc12)C(=O)O; mXylyl(4) = bridging moiety between residues; Trp(1-Me) = Cn1cc(C[C@H](N)C(=O)O)c2ccccc21; pXylyl = bridging moiety between residues; Tiq1c(1S) = O=C(O)[C@H]1NCCc2ccccc21; Phg = N[C@H](C(=O)O)c1ccccc1; Tle = CC(C)(C)[C@H](N)C(=O)O; NMeS = CN[C@@H](CO)C(=O)O; hCys = N[C@@H](CCS)C(=O)O; Nle = CCCC[C@H](N)C(=O)O; Nva = CCC[C@H](N)C(=O)O; Sar = CNCC(=O)O
Biological target: human C5 protein (human, UniProt P01031 19-673; P01031 678-1676)
Test: cell-based or functional assay

Row | Binder | Avg. IC50, human hemolysis assay (complete human sera)
1 | Ac-[Nva]CYNN[Tle]E[Trp(7-aza)]ECP[Phg][Tle]-NH2 (linker 2-10 via mXylyl(4)) [R3127] | > 75 µM
2 | Ac-Y[Nva]C[Phg]T[Trp(7-aza)]EY[NMeS]HC[Nva]-NH2 (linker 3-11 via mXylyl(4)) [R3113] | > 5 µM
3 | Ac-[Nva]T[Phg]C[Trp(7-aza)]EY[NMeS]AC[Nva]-NH2 (linker 4-10 via mXylyl(4)) [R3111] | > 5 µM
4 | Ac-[Nva]CYNN[Tle]E[Trp(7-aza)]ECP[Phg][Tle]-NH2 (cysteine pairing not given here) [R3126] | > 3 µM
5 | Ac-[Nva]CYNN[Tle]ECEYP[Phg][Tle]-NH2 (cysteine pairing not given here) [R3128] | > 100 µM
6 | Ac-CVERFCVYWEF-NH2 (linker 1-6 via mXylyl(4)) [R3124] | > 100 µM
7 | Ac-[Nva]C[Phg]TW[Ala(1H-tetrazol-5-yl)]Y[NMeS]HC[Nva]-NH2 (linker 2-10 via mXylyl(3)) [R3131] | > 100 µM
8 | Ac-[Nva][hCys][Phg]T[Trp(7-aza)]EY[NMeS]H[hCys][Nva]-NH2 (linker 2-10 via pXylyl) [R3108] | > 75 µM
9 | Ac-[Nva]C[Phg]T[Trp(1-Me)]EY[NMeS]AC[Nva]-NH2 (linker 2-10 via mXylyl(4)) [R3109] | > 100 µM
10 | Ac-[Nva]CYE[Sar][Tle]Y[Trp(7-aza)]EC[Nva]P[Nva]-NH2 (linker 2-10 via mXylyl) [R3009] | > 100 µM
11 | Ac-[Nle]C[Phg]T[Trp(7-aza)]EY[NMeS]HC[Nva]-NH2 (linker 2-10 via mXylyl(4)) [R3112] | > 5 µM
12 | Ac-[Nva]C[Phg]T[Trp(7-aza)]EY[NMeS]H[hCys][Nva]-NH2 (linker 2-10 via mXylyl(4)) [R3105] | > 5 µM
13 | Ac-[Nva]C[Phg]T[Trp(7-aza)]EY[NMeS]HGC[Nva]-NH2 (linker 2-11 via mXylyl(4) (inferred)) [R3101] | > 100 µM
14 | Ac-YENY[dW]EYP[Phg][Nva]-NH2 (SMILES CCC[C@H](NC(=O)[C@@H](NC(=O)[C@@H]1CCCN1C(=O)[C@H](Cc1ccc(O)cc1)NC(=O)[C@H](CCC(=O)O)NC(=O)[C@@H](Cc1c[nH]c2ccccc12)NC(=O)[C@H](Cc1ccc(O)cc1)NC(=O)[C@H](CC(N)=O)NC(=O)[C@H](CCC(=O)O)NC(=O)[C@H](Cc1ccc(O)cc1)NC(C)=O)c1ccccc1)C(N)=O) [R3119] | > 100 µM
15 | Ac-[Nva]C[Phg]T[Trp(7-aza)]EY[NMeS]HC[Nva]-NH2 (linker 2-10 via mXylyl) [R3012] | 0.148 µM
16 | Ac-[Nva]C[Phg]T[Trp(7-aza)]EYPHC[Nva]-NH2 (linker 2-10 via mXylyl(4)) [R3102] | 0.978 µM
17 | Ac-[Nva]C[Phg]T[Trp(7-aza)]EY[NMeS]H[hCys][Nva]-NH2 (linker 2-10 via pXylyl) [R3106] | > 5 µM
18 | Ac-[Nva]CYE[Sar][Tle]Y[Trp(7-aza)]E[Nva][Nva]PC-NH2 (linker 2-13 via mXylyl) [R3010] | > 100 µM
19 | Ac-[Nva]C[Tiq1c(1S)]T[Trp(7-aza)]EY[NMeS]HC[Nva]-NH2 (linker 2-10 via mXylyl(3)) [R3122] | > 50 µM
20 | Ac-CVERFCWEF-NH2 (linker 1-6 via mXylyl(4)) [R3125] | > 100 µM
21 | Ac-[Nva]CYNN[Tle]ECEYP[Phg][Tle]-NH2 (linker 2-8 via mXylyl(4)) [R3129] | > 100 µM
22 | Ac-YEN[Tle]Y[Trp(1-Me)]EYP[Phg][Nva]-NH2 (SMILES CCC[C@H](NC(=O)[C@@H](NC(=O)[C@@H]1CCCN1C(=O)[C@H](Cc1ccc(O)cc1)NC(=O)[C@H](CCC(=O)O)NC(=O)[C@H](Cc1cn(C)c2ccccc12)NC(=O)[C@H](Cc1ccc(O)cc1)NC(=O)[C@@H](NC(=O)[C@H](CC(N)=O)NC(=O)[C@H](CCC(=O)O)NC(=O)[C@H](Cc1ccc(O)cc1)NC(C)=O)C(C)(C)C)c1ccccc1)C(N)=O) [R3110] | 2.94 µM
23 | Ac-[Nva]CYKNYH[Trp(7-aza)]EYP[Tle]Y-NH2 (SMILES CCC[C@H](NC(C)=O)C(=O)N[C@@H](CS)C(=O)N[C@@H](Cc1ccc(O)cc1)C(=O)N[C@@H](CCCCN)C(=O)N[C@@H](CC(N)=O)C(=O)N[C@@H](Cc1ccc(O)cc1)C(=O)N[C@@H](Cc1c[nH]cn1)C(=O)N[C@@H](Cc1c[nH]c2ncccc12)C(=O)N[C@@H](CCC(=O)O)C(=O)N[C@@H](Cc1ccc(O)cc1)C(=O)N1CCC[C@H]1C(=O)N[C@H](C(=O)N[C@@H](Cc1ccc(O)cc1)C(N)=O)C(C)(C)C) [R3000] | > 10 µM
24 | Ac-[Nva][hCys][Phg]T[Trp(7-aza)]EY[NMeS]HC[Nva]-NH2 (linker 2-10 via pXylyl) [R3104] | > 2 µM
25 | Ac-[Nva][hCys][Phg]T[Trp(7-aza)]EY[NMeS]HC[Nva]-NH2 (linker 2-10 via mXylyl(4)) [R3103] | > 25 µM
26 | Ac-[Nva][hCys][Phg]T[Trp(7-aza)]EY[NMeS]H[hCys][Nva]-NH2 (linker 2-10 via mXylyl(4)) [R3107] | > 75 µM
